Experimental data: patent US20210252150A1
Where two headings read alike, the source gives them in different places.

Assays:
[1] = biological target: HA of A/Solomon Islands/03/2006 (H1N1) (influenza A virus (H1N1)); experiment: BLI, Fab on immobilized biotinylated HA
[2] = biological target: HA of A/Vietnam/1203/2004 (H5N1) (influenza A virus (H5N1)); experiment: BLI, Fab on immobilized biotinylated HA
[3] = biological target: HA of A/Indonesia/5/2005 (H5N1) (influenza A virus (H5N1)); experiment: BLI, Fab on immobilized biotinylated HA
[4] = biological target: HA of A/Victoria/361/2011 (H3N2) (influenza A virus (H3N2)); experiment: BLI, Fab on immobilized biotinylated HA
[5] = biological target: HA of A/chicken/Germany/N/1948 (H10N7) (influenza A virus (H10N7)); experiment: ELISA, recombinant HA
[6] = biological target: HA of A/Fort Monthouth/1947 (H1N1) (influenza A virus (H1N1)); experiment: ELISA, recombinant HA
[7] = biological target: HA of A/California/07/2004 (H3) (Influenza A virus A/California/07/2004 (H3)); experiment: ELISA, recombinant HA
[8] = biological target: HA of A/Vietnam/1203/2004 (H5N1) (influenza A virus (H5N1)); experiment: ELISA, recombinant HA
[9] = biological target: HA of A/Taiwan/2/2013 (H6) (Influenza A virus A/Taiwan/2/2013 (H6)); experiment: ELISA, recombinant HA
[10] = biological target: HA of A/turkey/Ontario/6118/1967 (H8) (Influenza A virus A/turkey/Ontario/6118/1967 (H8)); experiment: ELISA, recombinant HA
[11] = biological target: HA of A/duck/Memphis/546/1974 (H11) (Influenza A virus A/duck/Memphis/546/1974 (H11)); experiment: ELISA, recombinant HA
[12] = biological target: HA of A/shearwater/Western Australia/2576/1979 (H15N9) (influenza A virus (H15N9)); experiment: ELISA
[13] = biological target: HA of A/Netherlands/219/2003 (H7N7) (influenza A virus (H7N7)); experiment: ELISA
[14] = biological target: HA of A/Shanghai/2/2013 (H7N9) (influenza A virus (H7N9)); experiment: ELISA
[15] = biological target: HA of A/Texas/36/1991 (H1N1) (influenza A virus (H1N1)); experiment: ELISA
[16] = biological target: HA of A/mallard duck/Astrakhan/263/1982 (H14N5) (influenza A virus (H14N5)); experiment: ELISA
[17] = biological target: HA of A/Solomon Islands/03/2006 (H1N1) (influenza A virus (H1N1)); experiment: ELISA
[18] = biological target: HA of A/Hong Kong/1073/99 (H9) (influenza A virus (H9)); experiment: ELISA
[19] = biological target: HA of A/Indonesia/5/2005 (H5N1) (influenza A virus (H5N1)); experiment: ELISA
[20] = biological target: HA of A/Texas/50/2012 (H3N2) (influenza A virus (H3N2)); experiment: ELISA
[21] = biological target: HA of A/shearwater/Western Australia/2576/1979 (H15N9) (influenza A virus (H15N9)); experiment: ELISA, recombinant HA
[22] = biological target: HA of A/Netherlands/219/2003 (H7N7) (influenza A virus (H7N7)); experiment: ELISA, recombinant HA
[23] = biological target: HA of A/chicken/Germany/N/1948 (H10N7) (influenza A virus (H10N7)); experiment: ELISA, recombinant HA; remark: listed apart in the source
[24] = biological target: HA of A/Shanghai/2/2013 (H7N9) (influenza A virus (H7N9)); experiment: ELISA, recombinant HA
[25] = biological target: HA of A/Fort Monthouth/1947 (H1N1) (influenza A virus (H1N1)); experiment: ELISA, recombinant HA; remark: listed apart in the source
[26] = biological target: HA of A/Texas/36/1991 (H1N1) (influenza A virus (H1N1)); experiment: ELISA, recombinant HA
[27] = biological target: HA of A/mallard duck/Astrakhan/263/1982 (H14N5) (influenza A virus (H14N5)); experiment: ELISA, recombinant HA
[28] = biological target: HA of A/Solomon Islands/03/2006 (H1N1) (influenza A virus (H1N1)); experiment: ELISA, recombinant HA
[29] = biological target: HA of A/Taiwan/2/2013 (H6) (Influenza A virus A/Taiwan/2/2013 (H6)); experiment: ELISA, recombinant HA; remark: listed apart in the source
[30] = biological target: HA of A/Hong Kong/1073/99 (H9) (influenza A virus (H9)); experiment: ELISA, recombinant HA
[31] = biological target: HA of A/Indonesia/5/2005 (H5N1) (influenza A virus (H5N1)); experiment: ELISA, recombinant HA
[32] = biological target: HA of A/Switzerland/9715293/2013 (H3) (influenza A virus (H3)); experiment: ELISA, recombinant HA
[33] = biological target: HA of A/Texas/50/2012 (H3N2) (influenza A virus (H3N2)); experiment: ELISA, recombinant HA
[34] = biological target: HA of A/shearwater/Western Australia/2576/1979 (H15N9) (influenza A virus (H15N9)); experiment: ELISA, recombinant HA; remark: listed apart in the source
[35] = biological target: HA of A/Netherlands/219/2003 (H7N7) (influenza A virus (H7N7)); experiment: ELISA, recombinant HA; remark: listed apart in the source
[36] = biological target: HA of A/Shanghai/2/2013 (H7N9) (influenza A virus (H7N9)); experiment: ELISA, recombinant HA; remark: listed apart in the source
[37] = biological target: HA of A/Texas/36/1991 (H1N1) (influenza A virus (H1N1)); experiment: ELISA, recombinant HA; remark: listed apart in the source
[38] = biological target: HA of A/mallard duck/Astrakhan/263/1982 (H14N5) (influenza A virus (H14N5)); experiment: ELISA, recombinant HA; remark: listed apart in the source
[39] = biological target: HA of A/Solomon Islands/03/2006 (H1N1) (influenza A virus (H1N1)); experiment: ELISA, recombinant HA; remark: listed apart in the source
[40] = biological target: HA of A/Hong Kong/1073/99 (H9) (influenza A virus (H9)); experiment: ELISA, recombinant HA; remark: listed apart in the source
[41] = biological target: HA of A/Indonesia/5/2005 (H5N1) (influenza A virus (H5N1)); experiment: ELISA, recombinant HA; remark: listed apart in the source
[42] = biological target: HA of A/Texas/50/2012 (H3N2) (influenza A virus (H3N2)); experiment: ELISA, recombinant HA; remark: listed apart in the source
[43] = biological target: HA of A/gull/Maryland/704/1977 (H13) (influenza A virus (H13)); experiment: ELISA
[44] = biological target: HA of A/Shanghai/2/2013 (H7N9) (influenza A virus (H7N9)); experiment: ELISA; remark: listed apart in the source
[45] = biological target: HA of A/New York/107/2003 (H7N2) (influenza A virus (H7N2)); experiment: ELISA
[46] = biological target: HA of A/Texas/36/1991 (H1N1) (influenza A virus (H1N1)); experiment: ELISA; remark: listed apart in the source
[47] = biological target: HA of A/mallard duck/Astrakhan/263/1982 (H14N5) (influenza A virus (H14N5)); experiment: ELISA; remark: listed apart in the source
[48] = biological target: HA of A/Solomon Islands/03/2006 (H1N1) (influenza A virus (H1N1)); experiment: ELISA; remark: listed apart in the source
[49] = biological target: HA of A/Vietnam/1203/2004 (H5N1) (influenza A virus (H5N1)); experiment: ELISA
[50] = biological target: HA of A/Minnesota/11/10 (H3) (influenza A virus (H3)); experiment: ELISA
[51] = biological target: HA of A/Hong Kong/1073/99 (H9) (influenza A virus (H9)); experiment: ELISA; remark: listed apart in the source
[52] = biological target: HA of A/Indonesia/5/2005 (H5N1) (influenza A virus (H5N1)); experiment: ELISA; remark: listed apart in the source
[53] = biological target: HA of A/Switzerland/9715293/2013 (H3) (influenza A virus (H3)); experiment: ELISA
[54] = biological target: HA of A/black-headed gull/Sweden/4/1999 (H16) (influenza A virus (H16)); experiment: ELISA
[55] = biological target: HA of A/Texas/50/2012 (H3N2) (influenza A virus (H3N2)); experiment: ELISA; remark: listed apart in the source
[56] = biological target: HA of A/Switzerland/9715293/2013 (H3) (influenza A virus (H3)); experiment: ELISA; remark: listed apart in the source
[57] = biological target: dimeric recombinant soluble FcγRIIIa (CD16a), V176 (UniProt P08637)
Sequence of dimeric recombinant soluble FcγRIIIa (CD16a), V176 (P08637 17-208 F176V limits assumed): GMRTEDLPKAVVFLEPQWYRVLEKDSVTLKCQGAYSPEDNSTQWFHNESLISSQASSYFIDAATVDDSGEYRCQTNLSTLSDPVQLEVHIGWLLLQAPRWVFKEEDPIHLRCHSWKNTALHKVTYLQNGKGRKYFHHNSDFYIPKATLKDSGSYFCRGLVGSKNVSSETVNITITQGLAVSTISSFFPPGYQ

[58] = biological target: dimeric recombinant soluble FcγRIIIa (CD16a), V176 (UniProt P08637); remark: listed apart in the source
[59] = biological target: HA of A/black-headed gull/Sweden/4/1999 (H16) (influenza A virus (H16)); experiment: ELISA, recombinant HA

With FluA-20 Fab the Kd [1] was 2 nM, the Kd [2] was 122 nM and the Kd [3] was 88 nM. The Kd [4] was 15 nM.

Work on “rFluA-20 (recombinant FluA-20 IgG) (antibody)” yielded an EC50 [5] of 0.041 µg/mL, an EC50 [6] of 0.007 µg/mL and an EC50 [7] of 0.009 µg/mL. The EC50 [8] was 0.133 µg/mL, the EC50 [9] was 0.063 µg/mL and the EC50 [10] was 0.005 µg/mL. The EC50 [11] was 0.076 µg/mL, the EC50 [12] was 0.007 µg/mL and the EC50 [13] was 0.005 µg/mL. It also gave an EC50 [14] of 0.013 µg/mL, an EC50 [15] of 0.008 µg/mL and an EC50 [16] of 0.007 µg/mL. The EC50 [17] was 0.008 µg/mL, the EC50 [18] was 0.007 µg/mL and the EC50 [19] was 0.016 µg/mL. For the same substance, the EC50 [20] was 0.007 µg/mL, the EC50 [21] was 0.136 µg/mL and the EC50 [22] was 0.054 µg/mL. For the same substance, the EC50 [23] was 0.129 µg/mL, the EC50 [24] was 0.117 µg/mL and the EC50 [25] was 0.02 µg/mL. For the same substance, the EC50 [26] was 0.046 µg/mL, the EC50 [27] was 0.071 µg/mL and the EC50 [28] was 0.047 µg/mL. For the same substance, the EC50 [29] was 0.229 µg/mL, the EC50 [30] was 0.407 µg/mL and the EC50 [31] was 6.05 µg/mL. It also gave an EC50 [32] of 0.548 µg/mL and an EC50 [33] of 0.086 µg/mL.

In the case of “FluA-20 (hybridoma-produced IgG) (antibody)”, the EC50 [34] is reported as 0.007 µg/mL, the EC50 [35] is reported as 0.006 µg/mL and the EC50 [5] is reported as 0.037 µg/mL. The EC50 [36] was 0.012 µg/mL, the EC50 [6] was 0.007 µg/mL and the EC50 [7] was 0.008 µg/mL. For the same substance, the EC50 [37] was 0.009 µg/mL, the EC50 [38] was 0.007 µg/mL and the EC50 [39] was 0.008 µg/mL. It also gave an EC50 [8] of 0.142 µg/mL, an EC50 [9] of 0.061 µg/mL and an EC50 [40] of 0.007 µg/mL. It also gave an EC50 [10] of 0.005 µg/mL, an EC50 [41] of 0.016 µg/mL and an EC50 [11] of 0.072 µg/mL. For the same substance, the EC50 [42] was 0.006 µg/mL, the EC50 [43] was 0.07 µg/mL and the EC50 [44] was 0.066 µg/mL. The EC50 [45] was 0.808 µg/mL, the EC50 [46] was 0.004 µg/mL and the EC50 [47] was 0.013 µg/mL. For the same substance, the EC50 [48] was 0.005 µg/mL, the EC50 [49] was 0.283 µg/mL and the EC50 [50] was greater than 10 µg/mL. The EC50 [51] was 0.009 µg/mL, the EC50 [52] was 0.085 µg/mL and the EC50 [53] was 0.019 µg/mL. It also gave an EC50 [54] greater than 10 µg/mL, an EC50 [55] of 0.004 µg/mL and an EC50 [12] of 0.08 µg/mL. The EC50 [13] was 0.05 µg/mL, the EC50 [14] was 0.12 µg/mL and the EC50 [15] was 0.05 µg/mL. It also gave an EC50 [16] of 0.95 µg/mL, an EC50 [17] of 0.05 µg/mL and an EC50 [18] of 0.41 µg/mL. For the same substance, the EC50 [19] was 6.05 µg/mL, the EC50 [56] was 0.55 µg/mL and the EC50 [20] was 0.09 µg/mL. The EC50 (read off the curve) [57] was 0.3 µg/mL, the EC50 (read off the curve) [58] was 0.3 µg/mL and the EC50 [21] was 0.015 µg/mL. It also gave an EC50 [22] of 0.029 µg/mL, an EC50 [23] of 0.031 µg/mL and an EC50 [25] of 0.012 µg/mL. For the same substance, the EC50 [29] was 0.147 µg/mL.

Substance CR6261 (antibody) has an EC50 [34] of 0.061 µg/mL, an EC50 [6] of 0.043 µg/mL and an EC50 [37] of 0.025 µg/mL. The EC50 [39] was 0.013 µg/mL, the EC50 [8] was 0.031 µg/mL and the EC50 [9] was 0.048 µg/mL. The EC50 [41] was 0.026 µg/mL and the EC50 [59] was 0.245 µg/mL.
